# T1: Rsp3690 (Cereibacter sphaeroides, UniProt Q3IVY4)
# T1 sequence (Q3IVY4 1-354): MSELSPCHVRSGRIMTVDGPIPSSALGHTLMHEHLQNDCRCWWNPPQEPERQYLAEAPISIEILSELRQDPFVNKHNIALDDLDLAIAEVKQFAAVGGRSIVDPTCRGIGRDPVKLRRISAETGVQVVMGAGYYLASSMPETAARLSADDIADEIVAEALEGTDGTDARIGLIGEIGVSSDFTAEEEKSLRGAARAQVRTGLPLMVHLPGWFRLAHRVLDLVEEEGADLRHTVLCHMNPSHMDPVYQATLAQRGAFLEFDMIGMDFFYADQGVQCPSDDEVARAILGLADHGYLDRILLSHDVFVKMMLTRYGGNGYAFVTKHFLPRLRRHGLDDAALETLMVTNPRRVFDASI
# B1: Rsp3690 (Cereibacter sphaeroides 2.4.1) (protein)
# chain: MSELSPCHVRSGRIMTVDGPIPSSALGHTLMHEHLQNDCRCWWNPPQEPERQYLAEAPISIEILSELRQDPFVNKHNIALDDLDLAIAEVKQFAAVGGRSIVDPTCRGIGRDPVKLRRISAETGVQVVMGAGYYLASSMPETAARLSADDIADEIVAEALEGTDGTDARIGLIGEIGVSSDFTAEEEKSLRGAARAQVRTGLPLMVHLPGWFRLAHRVLDLVEEEGADLRHTVLCHMNPSHMDPVYQATLAQRGAFLEFDMIGMDFFYADQGVQCPSDDEVARAILGLADHGYLDRILLSHDVFVKMMLTRYGGNGYAFVTKHFLPRLRRHGLDDAALETLMVTNPRRVFDASI
# Experiments:
# [1] = biological target: T1, Rsp3690; experiment: 4-nitrophenol release at […] nm; conditions: pH 8.3, 30 °C, 400 μM MnCl2, Mn enzyme
# [2] = substrate: CCCCCCCC(=O)Oc1ccc([N+](=O)[O-])cc1; experiment: purified protein; conditions: pH 8.3, 30 °C, 400 μM MnCl2, Mn enzyme
# [3] = substrate: CC(=O)Nc1ccc([N+](=O)[O-])cc1; experiment: purified protein; conditions: pH 8.3, 30 °C, 400 μM MnCl2, Mn enzyme
# [4] = substrate: CC(=O)Oc1ccc([N+](=O)[O-])cc1; experiment: purified protein; conditions: pH 8.3, 30 °C, 400 μM MnCl2, Mn enzyme
# [5] = substrate: CCCC(=O)Oc1ccc([N+](=O)[O-])cc1; experiment: purified protein; conditions: pH 8.3, 30 °C, 400 μM MnCl2, Mn enzyme
# [6] = substrate: CCCCCC(=O)Oc1ccc([N+](=O)[O-])cc1; experiment: purified protein; conditions: pH 8.3, 30 °C, 400 μM MnCl2, Mn enzyme
# [7] = substrate: CC(=O)OCc1ccccc1; experiment: purified protein; format: biochemical, Cereibacter sphaeroides; conditions: pH 8.3, 30 °C, 400 μM MnCl2, Mn enzyme
# [8] = substrate: CC(=O)Oc1cccc2ccccc12; experiment: purified protein; format: biochemical, Cereibacter sphaeroides; conditions: pH 8.3, 30 °C, 400 μM MnCl2, Mn enzyme
# [9] = substrate: CC(=O)Oc1ccc2ccccc2c1; experiment: purified protein; format: biochemical, Cereibacter sphaeroides; conditions: pH 8.3, 30 °C, 400 μM MnCl2, Mn enzyme
# [10] = substrate: CC(=O)Oc1cccnc1; experiment: purified protein; format: biochemical, Cereibacter sphaeroides; conditions: pH 8.3, 30 °C, 400 μM MnCl2, Mn enzyme
# [11] = substrate: CCCC(=O)Oc1ccc2c(C)cc(=O)oc2c1; experiment: purified protein; format: biochemical, Cereibacter sphaeroides; conditions: pH 8.3, 30 °C, 400 μM MnCl2, Mn enzyme
# [12] = substrate: CC(=O)Oc1ccc2c(C)cc(=O)oc2c1; experiment: purified protein; format: biochemical, Cereibacter sphaeroides; conditions: pH 8.3, 30 °C, 400 μM MnCl2, Mn enzyme
# [13] = substrate: CCC(=O)Oc1ccc2ccccc2c1; experiment: purified protein; format: biochemical, Cereibacter sphaeroides; conditions: pH 8.3, 30 °C, 400 μM MnCl2, Mn enzyme
# [14] = substrate: CCCC(=O)Oc1cccc2ccccc12; experiment: purified protein; format: biochemical, Cereibacter sphaeroides; conditions: pH 8.3, 30 °C, 400 μM MnCl2, Mn enzyme
# [15] = substrate: CC(=O)Oc1c[nH]c2ccccc12; experiment: purified protein; format: biochemical, Cereibacter sphaeroides; conditions: 50 mM Hepes pH 8.3, 1% ethanol, 30 °C, 400 μM MnCl2, Mn enzyme
# [16] = substrate: CC(=O)Nc1ccc(Cl)cc1; experiment: purified protein; format: biochemical, Cereibacter sphaeroides; conditions: pH 8.3, 30 °C, 400 μM MnCl2, Mn enzyme
# [17] = substrate: CC(=O)Oc1ccc(OC(C)=O)cc1; experiment: purified protein; format: biochemical, Cereibacter sphaeroides; conditions: pH 8.3, 30 °C, 400 μM MnCl2, Mn enzyme
# [18] = substrate: CCCCCCC(=O)Oc1ccc2c(C)cc(=O)oc2c1; experiment: purified protein; format: biochemical, Cereibacter sphaeroides; conditions: pH 8.3, 30 °C, 400 μM MnCl2, Mn enzyme
# [19] = substrate: CC(=O)Oc1ccccc1; experiment: purified protein; format: biochemical, Cereibacter sphaeroides; conditions: pH 8.3, 30 °C, 400 μM MnCl2, Mn enzyme
molecule,measurement,setting,value
"CCOP(=O)(OCC)Oc1ccc([N+](=O)[O-])cc1 [compound 27, paraoxon]",Km,[1],110 ± 10 µM
"COP(=O)(OC)Oc1ccc([N+](=O)[O-])cc1 [compound 26, methyl paraoxon]",Km,[1],420 ± 40 µM
B1,Km,[2],33 ± 4 µM
same,kcat,[2],0.5 ± 0.01 s⁻¹
same,kcat/Km,[2],15000 ± 2000 M⁻¹ s⁻¹
same,Km,[3],650 ± 60 µM
same,kcat,[3],0.36 ± 0.02 s⁻¹
same,kcat/Km,[3],550 ± 60 M⁻¹ s⁻¹
same,Km,[4],520 ± 40 µM
same,kcat,[4],120 ± 3 s⁻¹
same,kcat/Km,[4],230000 ± 20000 M⁻¹ s⁻¹
same,Km,[5],56 ± 3 µM
same,kcat,[5],50 ± 1 s⁻¹
same,kcat/Km,[5],880000 ± 40000 M⁻¹ s⁻¹
same,Km,[6],48 ± 5 µM
same,kcat,[6],6.5 ± 0.2 s⁻¹
same,kcat/Km,[6],130000 ± 10000 M⁻¹ s⁻¹
same,Km,[7],1600 ± 100 µM
same,kcat,[7],2.5 ± 0.1 s⁻¹
same,kcat/Km,[7],1600 ± 100 M⁻¹ s⁻¹
same,Km,[8],640 ± 70 µM
same,kcat,[8],4.8 ± 0.1 s⁻¹
same,kcat/Km,[8],7500 ± 100 M⁻¹ s⁻¹
same,Km,[9],400 ± 40 µM
same,kcat,[9],40 ± 2 s⁻¹
same,kcat/Km,[9],100000 ± 10000 M⁻¹ s⁻¹
same,Km,[10],1800 ± 200 µM
same,kcat,[10],4.3 ± 0.3 s⁻¹
same,kcat/Km,[10],2400 ± 300 M⁻¹ s⁻¹
same,Km,[11],160 ± 20 µM
same,kcat,[11],4.9 ± 0.2 s⁻¹
same,kcat/Km,[11],31000 ± 4000 M⁻¹ s⁻¹
same,Km,[12],240 ± 20 µM
same,kcat,[12],0.65 ± 0.02 s⁻¹
same,kcat/Km,[12],2700 ± 200 M⁻¹ s⁻¹
same,Km,[13],560 ± 30 µM
same,kcat,[13],83 ± 2 s⁻¹
same,kcat/Km,[13],150000 ± 10000 M⁻¹ s⁻¹
same,Km,[14],180 ± 20 µM
same,kcat,[14],9 ± 1 s⁻¹
same,kcat/Km,[14],50000 ± 6000 M⁻¹ s⁻¹
same,Km,[15],1900 ± 200 µM
same,kcat,[15],2.3 ± 0.1 s⁻¹
same,kcat/Km,[15],1200 ± 100 M⁻¹ s⁻¹
same,Km,[16],1600 ± 100 µM
same,kcat,[16],0.1 ± 0.01 s⁻¹
same,kcat/Km,[16],63 ± 7 M⁻¹ s⁻¹
same,Km,[17],900 ± 100 µM
same,kcat,[17],108 ± 4 s⁻¹
same,kcat/Km,[17],130000 ± 10000 M⁻¹ s⁻¹
same,Km,[18],24 ± 3 µM
same,kcat,[18],0.063 ± 0.001 s⁻¹
same,kcat/Km,[18],2600 ± 300 M⁻¹ s⁻¹
same,Km,[19],2800 ± 200 µM
same,kcat,[19],30 ± 1 s⁻¹
same,kcat/Km,[19],11000 ± 1000 M⁻¹ s⁻¹

# Source: PMC4045322 (Biochemistry, 2014)
